Measurements from publication PMC4948116.

Columns and labels:
Test in all cases: SPR
[1] = molecular target: Human recombinant CD16B (human) (UniProt O75015)
[2] = molecular target: CD32A-131H (human) (UniProt P12318)
[3] = molecular target: Human recombinant CD32B (human) (UniProt P31994)
[4] = molecular target: CD32A-131R (human)
[5] = molecular target: Human recombinant CD16A-158V (human)
[6] = molecular target: Human recombinant CD16A-158F (human) (UniProt P08637)
UniProt P08637, sequence (P08637 17-208): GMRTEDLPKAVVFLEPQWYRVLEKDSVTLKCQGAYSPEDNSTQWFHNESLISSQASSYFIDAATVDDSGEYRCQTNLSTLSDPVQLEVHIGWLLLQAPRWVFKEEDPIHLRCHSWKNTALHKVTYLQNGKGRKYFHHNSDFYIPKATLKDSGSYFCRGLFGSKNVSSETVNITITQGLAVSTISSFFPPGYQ

UniProt P12318, sequence (P12318 34-317): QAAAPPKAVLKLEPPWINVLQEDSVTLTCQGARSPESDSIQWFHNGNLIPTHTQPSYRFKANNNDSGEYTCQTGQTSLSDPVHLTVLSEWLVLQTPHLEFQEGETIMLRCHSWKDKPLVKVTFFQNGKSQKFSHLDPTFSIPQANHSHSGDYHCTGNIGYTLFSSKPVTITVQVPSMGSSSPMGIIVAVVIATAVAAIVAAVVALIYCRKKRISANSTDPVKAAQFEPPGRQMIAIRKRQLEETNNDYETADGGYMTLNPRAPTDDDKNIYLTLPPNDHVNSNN
UniProt O75015, sequence (O75015 17-200): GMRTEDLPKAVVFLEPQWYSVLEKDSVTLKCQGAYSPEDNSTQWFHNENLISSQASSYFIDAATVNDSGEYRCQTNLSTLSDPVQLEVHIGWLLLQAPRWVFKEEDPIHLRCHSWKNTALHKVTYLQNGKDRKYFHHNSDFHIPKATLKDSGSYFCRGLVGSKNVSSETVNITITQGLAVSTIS
UniProt P31994, sequence (P31994 43-217): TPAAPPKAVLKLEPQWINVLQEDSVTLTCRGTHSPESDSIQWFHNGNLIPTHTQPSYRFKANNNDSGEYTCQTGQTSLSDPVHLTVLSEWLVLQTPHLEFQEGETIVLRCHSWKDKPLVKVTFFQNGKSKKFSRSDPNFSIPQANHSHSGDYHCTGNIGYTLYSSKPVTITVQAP

Kd [1] [µM]	Kd [2] [µM]	Kd [3] [µM]	Kd [4] [µM]	Kd [5] [µM]	ka1 (two-state reaction, first step) [5] [M⁻¹ s⁻¹]	kd1 (two-state reaction, first step) [5] [s⁻¹]	kd2 (two-state reaction, second step) [5] [s⁻¹]	Kd [6] [µM]	affinity relative to hu3F8-IgG1 on CD16A(158F) [6] [fold]	Substance
2.03	0.541	2.4	0.786	0.726	134000	0.212	0.00897	2.09	–	hu3F8-IgG1 (antibody)
–	–	–	–	–	–	–	–	–	16	hu3F8-IgG1-DEL (antibody)
